# Key:
# [1] = tested on: HeLa Kyoto; assay: thermal stability score vs G1/S (z-score of summed log2 fold changes over temperatures); higher = more thermally stable than in G1/S
# [2] = tested on: HeLa Kyoto; assay: solubility in G1/S (NP-40 vs SDS abundance) (log2 ratio); higher = more soluble; conditions: cell cycle stage: G1/S
# [3] = tested on: HeLa Kyoto; assay: melting temperature (median over replicates), in situ; higher = more thermally stable
# [4] = tested on: HeLa Kyoto; assay: solubility change mitosis vs G1/S (difference of NP-40 vs SDS log2 ratios) (log2 ratio difference); higher = more soluble in mitosis
# [5] = cell cycle stage: early G1 (4.5 h after nocodazole release)
# 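Wherever melting temperature (median over replicates), in situ is given: HeLa Kyoto cells synchronized by double thymidine or nocodazole block, proteins quantified by TMT10plex mass spectrometry, three independent biological replicates.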
# 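Wherever solubility change mitosis vs G1/S (difference of NP-40 vs SDS log2 ratios) is given: synchronized HeLa Kyoto cells (double thymidine block for G1/S, nocodazole release for mitosis), protein amounts in NP-40 versus SDS lysates quantified by mass spectrometry, three biological replicates.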
# 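Wherever solubility in G1/S (NP-40 vs SDS abundance) is given: HeLa Kyoto cells arrested at G1/S by double thymidine block, proteins quantified by TMT10plex mass spectrometry in mild NP-40 versus SDS extracts, three biological replicates.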
# 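Wherever thermal stability score vs G1/S (z-score of summed log2 fold changes over temperatures) is given: synchronized HeLa Kyoto cells, proteins quantified by TMT10plex mass spectrometry, three biological replicates, mitosis taken 0.5 h after nocodazole release, G1/S directly after double thymidine block.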
Sequence,"thermal stability score [1, 5]",thermal stability score ([1]; cell cycle stage: mitosis),solubility in G1/S (log2) [2],melting temperature ([3]; cell cycle stage: G1/S),melting temperature ([3]; cell cycle stage: mitosis),solubility change mitosis (log2) [4]
MATQAYTELQAAPPPSQPPQAPPQAQPQPPPPPPPAAPQPPQPPTAAATPQPQYVTELQSPQPQAQPPGGQKQYVTELPAVPAPSQPTGAPTPSPAPQQYIVVTVSEGAMRASETVSEASPGSTASQTGVPTQVVQQVQGTQQRLLVQTSVQAKPGHVSPLQLTNIQVPQQALPTQRLVVQSAAPGSKGGQVSLTVHGTQQVHSPPEQSPVQANSSSSKTAGAPTGTVPQQLQVHGVQQSVPVTQERSVVQATPQAPKPGPVQPLTVQGLQPVHVAQEVQQLQQVPVPHVYSSQVQYVEGGDASYTASAIRSSTYSYPETPLYTQTASTSYYEAAGTATQVSTPATSQAVASSGSMPMYVSGSQVVASSTSTGAGASNSSGGGGSGGGGGGGGGGGGGGSGSTGGGGSGAGTYVIQGGYMLGSASQSYSHTTRASPATVQWLLDNYETAEGVSLPRSTLYCHYLLHCQEQKLEPVNAASFGKLIRSVFMGLRTRRLGTRGNSKYHYYGLRIKASSPLLRLMEDQQHMAMRGQPFSQKQRLKPIQKMEGMTNGVAVGQQPSTGLSDISAQVQQYQQFLDASRSLPDFTELDLQGKVLPEGVGPGDIKAFQVLYREHCEAIVDVMVNLQFTLVETLWKTFWRYNLSQPSEAPPLAVHDEAEKRLPKAILVLLSKFEPVLQWTKHCDNVLYQGLVEILIPDVLRPIPSALTQAIRNFAKSLESWLTHAMVNIPEEMLRVKVAAAGAFAQTLRRYTSLNHLAQAARAVLQNTAQINQMLSDLNRVDFANVQEQASWVCRCEDRVVQRLEQDFKVTLQQQNSLEQWAAWLDGVVSQVLKPYQGSAGFPKAAKLFLLKWSFYSSMVIRDLTLRSAASFGSFHLIRLLYDEYMYYLIEHRVAQAKGETPIAVMGEFANLATSLNPLDPDKDEEEEEEEESEDELPQDISLAAGGESPALGPETLEPPAKLARTDARGLFVQALPSS [RFX1],-1.2,-2.15,-0.00333,53.3 °C,53 °C,-0.21
MATRSCREKAQKLNEQHQLILSKLLREEDNKYCADCEAKGPRWASWNIGVFICIRCAGIHRNLGVHISRVKSVNLDQWTAEQIQCMQDMGNTKARLLYEANLPENFRRPQTDQAVEFFIRDKYEKKKYYDKNAIAITNISSSDAPLQPLVSSPSLQAAVDKNKLEKEKEKKKEEKKREKEPEKPAKPLTAEKLQKKDQQLEPKKSTSPKKAAEPTVDLLGLDGPAVAPVTNGNTTVPPLNDDLDIFGPMISNPLPATVMPPAQGTPSAPAAATLSTVTSGDLDLFTEQTTKSEEVAKKQLSKDSILSLYGTGTIQQQSTPGVFMGPTNIPFTSQAPAAFQGFPSMGVPVPAAPGLIGNVMGQSPSMMVGMPMPNGFMGNAQTGVMPLPQNVVGPQGGMVGQMGAPQSKFGLPQAQQPQWSLSQMNQQMAGMSISSATPTAGFGQPSSTTAGWSGSSSGQTLSTQLWK [SMAP1],0.468,-0.266,-0.0223,51.2 °C,51.3 °C,-0.142
MATRSPGVVISDDEPGYDLDLFCIPNHYAEDLERVFIPHGLIMDRTERLARDVMKEMGGHHIVALCVLKGGYKFFADLLDYIKALNRNSDRSIPMTVDFIRLKSYCNDQSTGDIKVIGGDDLSTLTGKNVLIVEDIIDTGKTMQTLLSLVRQYNPKMVKVASLLVKRTPRSVGYKPDFVGFEIPDKFVVGYALDYNEYFRDLNHVCVISETGKAKYKA [HPRT1],-0.74,-3.12,0.209,58.5 °C,59.7 °C,-0.113
MATSAPLRSLEEEVTCSICLDYLRDPVTIDCGHVFCRSCTTDVRPISGSRPVCPLCKKPFKKENIRPVWQLASLVENIERLKVDKGRQPGEVTREQQDAKLCERHREKLHYYCEDDGKLLCVMCRESREHRPHTAVLMEKAAQPHREKILNHLSTLRRDRDKIQGFQAKGEADILAALKKLQDQRQYIVAEFEQGHQFLREREEHLLEQLAKLEQELTEGREKFKSRGVGELARLALVISELEGKAQQPAAELMQDTRDFLNRYPRKKFWVGKPIARVVKKKTGEFSDKLLSLQRGLREFQGKLLRDLEYKTVSVTLDPQSASGYLQLSEDWKCVTYTSLYKSAYLHPQQFDCEPGVLGSKGFTWGKVYWEVEVEREGWSEDEEEGDEEEEGEEEEEEEEAGYGDGYDDWETDEDEESLGDEEEEEEEEEEEVLESCMVGVARDSVKRKGDLSLRPEDGVWALRLSSSGIWANTSPEAELFPALRPRRVGIALDYEGGTVTFTNAESQELIYTFTATFTRRLVPFLWLKWPGTRLLLRP [TRIM26],0.882,3.9,-1.13,51.2 °C,–,-0.225
MATSMAAASGRFESAKSIEERKEQTRNARAEVLRQAKANFEKEERRKELKRLRGEDTWMLPDVNERIEQFSQEHSVKKKKKKDKHSKKAKKEKKKKSKKQKYEKNNESSDSSSSSEDEWVEAVPSQTPDKEKAWKVKDEKSGKDDTQIIKRDEWMTVDFMSVKTVSSSSLKAEKETMRKIEQEKNQALEQSKLMERELNPYWKDGGTGLPPEDCSVSSITKVSVVEDGGLSWLRKSYLRMKEQAEKQSRNFEDIVAERYGSMEIFQSKLEDAEKAASTKEDYRRERWRKPTYSDKAQNCQESRESDLVKYGNSSRDRYATTDTAKNSNNEKFIGDEKDKRPGSLETCRRESNPRQNQEFSFGNLRAKFLRPSDDEELSFHSKGRKFEPLSSSSALVAQGSLCSGFRKPTKNSEERLTSWSRSDGRGDKKHSNQKPSETSTDEHQHVPEDPREKSQDEVLRDDPPKKEHLRDTKSTFAGSPERESIHILSVDEKNKLGAKIIKAEMMGNMELAEQLKVQLEKANKFKETITQIPKKSGVENEDQQEVILVRTDQSGRVWPVNTPGKSLESQGGRRKRQMVSTHEERERVRYFHDDDNLSLNDLVKNEKMGTAENQNKLFMRMASKFMGKTDGDYYTLDDMFVSKAAERERLGEEEENQRKKAIAEHRSLAAQMEKCLYCFDSSQFPKHLIVAIGVKVYLCLPNVRSLTEGHCLIVPLQHHRAATLLDEDIWEEIQMFRKSLVKMFEDKGLDCIFLETNMSMKKQYHMVYECIPLPKEVGDMAPIYFKKAIMESDEEWSMNKKLIDLSSKDIRKSVPRGLPYFSVDFGLHGGFAHVIEDQHKFPHYFGKEIIGGMLDIEPRLWRKGIRESFEDQRKKALQFAQWWKPYDFTKSKNY [CWF19L2],0.398,2.26,-0.379,49.4 °C,49.2 °C,0.121
MATSVGHRCLGLLHGVAPWRSSLHPCEITALSQSLQPLRKLPFRAFRTDARKIHTAPARTMFLLRPLPILLVTGGGYAGYRQYEKYRERELEKLGLEIPPKLAGHWEVALYKSVPTRLLSRAWGRLNQVELPHWLRRPVYSLYIWTFGVNMKEAAVEDLHHYRNLSEFFRRKLKPQARPVCGLHSVISPSDGRILNFGQVKNCEVEQVKGVTYSLESFLGPRMCTEDLPFPPAASCDSFKNQLVTREGNELYHCVIYLAPGDYHCFHSPTDWTVSHRRHFPGSLMSVNPGMARWIKELFCHNERVVLTGDWKHGFFSLTAVGATNVGSIRIYFDRDLHTNSPRHSKGSYNDFSFVTHTNREGVPMRKGEHLGEFNLGSTIVLIFEAPKDFNFQLKTGQKIRFGEALGSL [PISD],-1.35,-0.739,-0.127,51.7 °C,50.9 °C,-0.00593
MATTATCTRFTDDYQLFEELGKGAFSVVRRCVKKTSTQEYAAKIINTKKLSARDHQKLEREARICRLLKHPNIVRLHDSISEEGFHYLVFDLVTGGELFEDIVAREYYSEADASHCIHQILESVNHIHQHDIVHRDLKPENLLLASKCKGAAVKLADFGLAIEVQGEQQAWFGFAGTPGYLSPEVLRKDPYGKPVDIWACGVILYILLVGYPPFWDEDQHKLYQQIKAGAYDFPSPEWDTVTPEAKNLINQMLTINPAKRITADQALKHPWVCQRSTVASMMHRQETVECLRKFNARRKLKGAILTTMLVSRNFSAAKSLLNKKSDGGVKKRKSSSSVHLMPQSNNKNSLVSPAQEPAPLQTAMEPQTTVVHNATDGIKGSTESCNTTTEDEDLKGRVPEGRSSRDRTAPSAGMQPQPSLCSSAMRKQEIIKITEQLIEAINNGDFEAYTKICDPGLTSFEPEALGNLVEGMDFHKFYFENLLSKNSKPIHTTILNPHVHVIGEDAACIAYIRLTQYIDGQGRPRTSQSEETRVWHRRDGKWLNVHYHCSGAPAAPLQ [CAMK2G],-0.442,-0.0382,-0.382,49.6 °C,48.9 °C,0.162
MATTGTPTADRGDAAATDDPAARFQVQKHSWDGLRSIIHGSRKYSGLIVNKAPHDFQFVQKTDESGPHSHRLYYLGMPYGSRENSLLYSEIPKKVRKEALLLLSWKQMLDHFQATPHHGVYSREEELLRERKRLGVFGITSYDFHSESGLFLFQASNSLFHCRDGGKNGFMVSPMKPLEIKTQCSGPRMDPKICPADPAFFSFINNSDLWVANIETGEERRLTFCHQGLSNVLDDPKSAGVATFVIQEEFDRFTGYWWCPTASWEGSEGLKTLRILYEEVDESEVEVIHVPSPALEERKTDSYRYPRTGSKNPKIALKLAEFQTDSQGKIVSTQEKELVQPFSSLFPKVEYIARAGWTRDGKYAWAMFLDRPQQWLQLVLLPPALFIPSTENEEQRLASARAVPRNVQPYVVYEEVTNVWINVHDIFYPFPQSEGEDELCFLRANECKTGFCHLYKVTAVLKSQGYDWSEPFSPGEDEFKCPIKEEIALTSGEWEVLARHGSKIWVNEETKLVYFQGTKDTPLEHHLYVVSYEAAGEIVRLTTPGFSHSCSMSQNFDMFVSHYSSVSTPPCVHVYKLSGPDDDPLHKQPRFWASMMEAASCPPDYVPPEIFHFHTRSDVRLYGMIYKPHALQPGKKHPTVLFVYGGPQVQLVNNSFKGIKYLRLNTLASLGYAVVVIDGRGSCQRGLRFEGALKNQMGQVEIEDQVEGLQFVAEKYGFIDLSRVAIHGWSYGGFLSLMGLIHKPQVFKVAIAGAPVTVWMAYDTGYTERYMDVPENNQHGYEAGSVALHVEKLPNEPNRLLILHGFLDENVHFFHTNFLVSQLIRAGKPYQLQIYPNERHSIRCPESGEHYEVTLLHFLQEYL [DPP9],-0.344,-0.63,-0.0578,51.3 °C,51.1 °C,-0.171
MAVADLALIPDVDIDSDGVFKYVLIRVHSAPRSGAPAAESKEIVRGYKWAEYHADIYDKVSGDMQKQGCDCECLGGGRISHQSQDKKIHVYGYSMAYGPAQHAISTEKIKAKYPDYEVTWANDGY [PHPT1],-0.712,-1.99,0.345,52.9 °C,53.5 °C,0.028
MAVARVDAALPPGEGSVVNWSGQGLQKLGPNLPCEADIHTLILDKNQIIKLENLEKCKRLIQLSVANNRLVRMMGVAKLTLLRVLNLPHNSIGCVEGLKELVHLEWLNLAGNNLKAMEQINSCTALQHLDLSDNNISQIGDLSKLVSLKTLLLHGNIITSLRMAPAYLPRSLAILSLAENEIRDLNEISFLASLTELEQLSIMNNPCVMATPSIPGFDYRPYIVSWCLNLRVLDGYVISQKESLKAEWLYSQGKGRAYRPGQHIQLVQYLATVCPLTSTLGLQTAEDAKLEKILSKQRFHQRQLMNQSQNEELSPLVPVETRASLIPEHSSPVQDCQISQESEPVIQVNSWVGINSNDDQLFAVKNNFPASVHTTRYSRNDLHLEDIQTDEDKLNCSLLSSESTFMPVASGLSPLSPTVELRLQGINLGLEDDGVADESVKGLESQVLDKEEEQPLWAANENSVQMMRSEINTEVNEKAGLLPCPEPTIISAILKDDNHSLTFFPESTEQKQSDIKKPENTQPENKETISQATSEKLPMILTQRSVALGQDKVALQKLNDAATKLQACWRGFYARNYNPQAKDVRYEIRLRRMQEHIVCLTDEIRRLRKERDEERIKKFVQEEAFRFLWNQVRSLQVWQQTVDQRLSSWHTDVPPISSTLVPSKHPLFTQSQESSCDQNADWFIASDVAPQEKSLPEFPDSGFHSSLTEQVHSLQHSLDFEKSSTEGSESSIMGNSIDTVRYGKESDLGDVSEEHGEWNKESSNNEQDNSLLEQYLTSVQQLEDADERTNFDTETRDSKLHIACFPVQLDTLSDGASVDESHGISPPLQGEISQTQENSKLNAEVQGQQPECDSTFQLLHVGVTV [CEP97],0.503,1.24,0.0763,49.6 °C,49.9 °C,-0.207

# — the supplement of paper PMC5998384
